In patent US20260166168A1 (MEDILINK THERAPEUTICS SUZHOU, published 2026):
Blank lines part the entries; values can stand above or below the binder they belong to.

Columns and labels:
[1] = target: T1, recombinant extracellular domain protein of human DLL3 (h.DLL3-ECD-His) (human, UniProt Q9NYJ7 27-492); assay: BLI (ForteBio), antibody on ProA sensor, hDLL3-ECD-His in solution
T1 construct: extracellular domain; Commercial protein; also called human DLL3 antigen; not shown: His tag
T1 sequence (looked up): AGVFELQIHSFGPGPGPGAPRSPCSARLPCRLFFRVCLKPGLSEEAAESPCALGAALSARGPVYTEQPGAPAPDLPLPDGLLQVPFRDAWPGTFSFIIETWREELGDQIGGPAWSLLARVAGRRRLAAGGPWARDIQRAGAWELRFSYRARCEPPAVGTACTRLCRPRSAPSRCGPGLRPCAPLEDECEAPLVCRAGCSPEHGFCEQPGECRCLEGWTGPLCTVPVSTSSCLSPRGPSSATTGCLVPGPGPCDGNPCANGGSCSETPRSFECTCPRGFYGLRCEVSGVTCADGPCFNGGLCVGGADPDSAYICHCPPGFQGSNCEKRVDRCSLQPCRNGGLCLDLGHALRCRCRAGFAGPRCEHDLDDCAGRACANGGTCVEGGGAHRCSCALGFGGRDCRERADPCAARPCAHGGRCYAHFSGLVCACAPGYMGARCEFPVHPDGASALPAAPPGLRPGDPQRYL

[2] = target: T2, human DLL4 on 293T-hDLL4 cells (human, UniProt Q9NR61 27-685); assay: flow cytometry on HEK293T-hDLL4 cells
T2 construct: whole, on cells; also called 293T-DLL4; HEK293T-hDLL4
T2 sequence (Q9NR61 27-685): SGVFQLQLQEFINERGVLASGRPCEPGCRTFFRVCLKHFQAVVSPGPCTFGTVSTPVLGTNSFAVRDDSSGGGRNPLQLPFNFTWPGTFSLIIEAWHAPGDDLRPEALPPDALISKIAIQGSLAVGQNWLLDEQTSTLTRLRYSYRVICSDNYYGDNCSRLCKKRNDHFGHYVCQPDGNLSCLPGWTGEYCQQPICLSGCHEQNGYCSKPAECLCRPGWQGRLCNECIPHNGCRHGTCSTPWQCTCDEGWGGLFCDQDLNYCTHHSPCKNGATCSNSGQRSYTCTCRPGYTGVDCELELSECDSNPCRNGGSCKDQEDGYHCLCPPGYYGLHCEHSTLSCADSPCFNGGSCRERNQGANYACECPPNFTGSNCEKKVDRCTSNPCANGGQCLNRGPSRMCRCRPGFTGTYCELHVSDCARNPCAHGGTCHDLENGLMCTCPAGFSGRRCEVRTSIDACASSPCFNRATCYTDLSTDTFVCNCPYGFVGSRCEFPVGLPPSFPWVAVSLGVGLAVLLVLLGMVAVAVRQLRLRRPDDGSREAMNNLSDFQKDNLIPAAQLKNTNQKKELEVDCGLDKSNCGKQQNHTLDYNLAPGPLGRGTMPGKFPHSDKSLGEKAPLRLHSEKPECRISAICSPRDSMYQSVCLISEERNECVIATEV

[3] = target: T3, recombinant extracellular domain protein of cynomolgus monkey DLL3 (cyno.DLL3-ECD-His) (cynomolgus monkey, UniProt A0A2K5WSR1 27-490); assay: BLI (ForteBio), antibody on ProA sensor, cynoDLL3-ECD-His in solution
T3 construct: extracellular domain; Commercial protein; not shown: His tag
T3 sequence: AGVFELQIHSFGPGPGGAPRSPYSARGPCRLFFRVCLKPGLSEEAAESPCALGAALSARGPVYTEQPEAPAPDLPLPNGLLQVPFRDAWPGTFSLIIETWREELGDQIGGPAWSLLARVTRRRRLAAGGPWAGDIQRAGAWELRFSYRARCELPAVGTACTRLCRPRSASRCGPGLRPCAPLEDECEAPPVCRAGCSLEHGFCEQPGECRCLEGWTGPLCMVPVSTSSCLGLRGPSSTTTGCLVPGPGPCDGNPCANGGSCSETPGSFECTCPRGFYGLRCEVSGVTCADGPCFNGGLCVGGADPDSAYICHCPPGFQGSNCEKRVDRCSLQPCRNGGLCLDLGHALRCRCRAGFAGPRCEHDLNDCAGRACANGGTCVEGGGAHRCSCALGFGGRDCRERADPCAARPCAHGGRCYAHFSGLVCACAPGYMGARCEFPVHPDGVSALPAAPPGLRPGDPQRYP

[4] = target: T3, recombinant extracellular domain …; assay: ELISA, coated cyno.DLL3-ECD-his 0.2 µg/mL, antibody titrated
[5] = target: T1, recombinant extracellular domain …; assay: ELISA, coated h.DLL3-ECD-his 0.2 µg/mL, antibody titrated
[6] = target: T4, human DLL1 on 293T-hDLL1 cells (human, UniProt O00548 18-723); assay: flow cytometry on HEK293T-hDLL1 cells
T4 construct: whole, on cells; also called 293T-DLL1; HEK293T-hDLL1
T4 sequence (looked up): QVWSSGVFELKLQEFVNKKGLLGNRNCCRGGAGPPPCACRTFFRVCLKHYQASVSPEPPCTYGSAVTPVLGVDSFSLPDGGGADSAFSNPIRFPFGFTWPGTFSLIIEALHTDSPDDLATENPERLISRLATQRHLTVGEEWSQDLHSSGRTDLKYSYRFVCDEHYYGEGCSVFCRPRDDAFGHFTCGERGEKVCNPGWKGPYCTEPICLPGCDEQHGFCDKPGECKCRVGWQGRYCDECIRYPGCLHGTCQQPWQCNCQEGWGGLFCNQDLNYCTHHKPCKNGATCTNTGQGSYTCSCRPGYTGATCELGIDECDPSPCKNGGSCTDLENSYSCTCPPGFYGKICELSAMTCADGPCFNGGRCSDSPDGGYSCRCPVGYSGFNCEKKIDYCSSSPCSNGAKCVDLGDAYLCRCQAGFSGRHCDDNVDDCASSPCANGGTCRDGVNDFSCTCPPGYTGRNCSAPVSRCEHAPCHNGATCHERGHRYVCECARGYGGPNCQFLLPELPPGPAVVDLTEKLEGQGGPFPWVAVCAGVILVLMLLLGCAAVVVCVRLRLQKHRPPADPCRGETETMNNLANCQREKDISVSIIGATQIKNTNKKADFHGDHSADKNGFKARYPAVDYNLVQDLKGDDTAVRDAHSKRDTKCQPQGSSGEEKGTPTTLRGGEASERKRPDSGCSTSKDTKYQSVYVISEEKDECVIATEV

B2: 87F7F10-Hz (antibody, human IgG1, kappa, V domains shown)
VH: QVQLQESGPGLVKPSETLSLTCTVSGYSITSDFYWNWIRQPPGKGLEWIGYITYDGSTNYNPSLKSRVTISRDTSKNQFSLKLSSVTAADTAVYYCVYGDFNRHAMDYWGQGTLVTVSS
VL: DIVMTQSPDSLAVSLGERATINCRSSQSLFNSRTRKNYLAWYQQKPGQPPKVLIYWASTRESGVPDRFSGSGSGTDFTLTISSLQAEDVAVYYCEQSFYLFTFGQGTKVEIKR
notes: Humanized; also called 87F7F10-hz1
Kd [1]: 8.57 nM
koff [1]: 0.000218 s⁻¹
kon [1]: 25400 M⁻¹ s⁻¹
binding result [2]: no binding (tested: 20 µg/mL)
Kd [3]: 2.41 nM
koff [3]: 8.84e-05 s⁻¹
kon [3]: 36700 M⁻¹ s⁻¹
EC50 [4]: 3.3 ng/mL
EC50 [5]: 3.8 ng/mL
binding result [6]: no binding (tested: 20 µg/mL)

B3: 59B10D3-Hz antibody (antibody, human IgG1, kappa, V domains shown)
VH: EVQLVESGGGLVQPGGSLRLSCAASGFTFSDAWMDWVRQAPGKGLEWVAEIRNKANNHATYYVDSVKGRFTISRDDAKNSVYLQMNSLRAEDTAVYYCTRNNYGSTWTYYAMDYWGQGTLVTVSS
VL: DIQMTQSPSSLSASVGDRVTITCRASQDISNYLNWYQQKPGKAVKLLIYYTSRLHSGVPSRFSGSGSGTDYTLTISSLQPEDFATYYCQQGYTLPLTFGQGTKVEIKR
notes: Humanized; also called 59B10D3-hz1
Kd [1]: 14 nM
koff [1]: 0.0017 s⁻¹
kon [1]: 122000 M⁻¹ s⁻¹
binding result [2]: no binding (tested: 20 µg/mL)
Kd [3]: 9.08 nM
koff [3]: 0.000908 s⁻¹
kon [3]: 100000 M⁻¹ s⁻¹
EC50 [4]: 6.3 ng/mL
EC50 [5]: 5.2 ng/mL
binding result [6]: no binding (tested: 20 µg/mL)

The next binders have a lower Kd [1] than those just listed; values first:

Kd [1]: 6.07 nM
koff [1]: 0.00045 s⁻¹
kon [1]: 74200 M⁻¹ s⁻¹
binding result [2]: no binding (tested: 20 µg/mL)
Kd [3]: 1.28 nM
koff [3]: 0.000122 s⁻¹
kon [3]: 95100 M⁻¹ s⁻¹
EC50 [4]: 3.5 ng/mL
EC50 [5]: 3.4 ng/mL
binding result [6]: no binding (tested: 20 µg/mL)
B1: 10F2F3-Hz antibody (antibody, human IgG1, kappa, V domains shown)
VH: QVQLVESGAEVKKPGSSVKVSCKASGYAFSSHWVNWVRQAPGQGLEWMGQIYPGNGDTNYAQKFQGRVTLTADKSTSTAYMELSSLTSEDTAVYFCARWFAYWGQGTLVTVSS
VL: DIQMTQSPSSLSASVGDRVTITCKSSQSLLDGGNQKNYLAWYQQKPGKPPKLLVYFASIRESGVPSRFSGSGSGTDFTLTISSLQPEDFATYYCQQHYNTPWTFGQGTKVEIKR
notes: Humanized

Kd [1]: 5.26 nM
koff [1]: 0.000652 s⁻¹
kon [1]: 124000 M⁻¹ s⁻¹
binding result [2]: no binding (tested: 20 µg/mL)
Kd [3]: 2.37 nM
koff [3]: 0.000479 s⁻¹
kon [3]: 202000 M⁻¹ s⁻¹
EC50 [4]: 4.1 ng/mL
EC50 [5]: 3.9 ng/mL
binding result [6]: no binding (tested: 20 µg/mL)
B4: 55C11E4-Hz1 (antibody, human IgG1, kappa, V domains shown)
VH: EVQLVQSGAEVKKPGASVKVSCKASGYTFTDYYMNWVRQAPGQRLEWMGVINPYNGGTNYSQKFQGRVTLTVDKSASTAYMELSSLRSEDTAVYYCARDSNYVGLLDYWGQGTLVTVSS
VL: DIVLTQSPATLSLSPGERATLSCRASQSISNNLHWYQQKPGQAPRLLIKYASQSISGIPARFSGSGSGPDFTLTISSLEPEDFAVYFCQQSNSWPYTFGQGTKVEIKR
notes: Humanized IgG1/kappa

Kd [1]: 0.243 nM
koff [1]: 4.27e-05 s⁻¹
kon [1]: 175000 M⁻¹ s⁻¹
binding result [2]: no binding (tested: 20 µg/mL)
Kd [3]: 0.873 nM
koff [3]: 0.000328 s⁻¹
kon [3]: 375000 M⁻¹ s⁻¹
EC50 [4]: 5.4 ng/mL
EC50 [5]: 4.7 ng/mL
binding result [6]: no binding (tested: 20 µg/mL)
B5: 6F11C10-Hz1 antibody (antibody, human IgG1, kappa, V domains shown)
VH: EVQLVQSGAEVKKPGASVKVSCKASGFTFTDYYMHWVRQAPGQSLEWMGLVYPYNGDISYAQKFQGRVTLTVDTSISTAYMELSRLRSDDTAVYYCARQGNYVNNAIDYWGQGTLVTVSS
VL: DIQMTQSPSSLSASVGDRVTITCKASQNVGNIIAWYQQKPGKSPKALIYLASYRYSGVPSRFSGSGSGTDFTLTISSLQPEDVATYFCQQYSDSPYTFGQGTKVEIKR
notes: Humanized IgG1/kappa
